The chains are these.
B1: SMOC2 (parent)
chain: DCAGSPQKPLCASDGRTFLSRCEF
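Also: lentivirally expressed fusions sorted by FACS into six bins by GFP to DsRed ratio, PSI derived from sequencing read proportions per bin multiplied by bin number.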

The variants in the data set derive from B1. Put plainly: protein stability index of a GFP-peptide fusion (GPS, HEK-293T) (PSI 1-6); higher = more stable. To be noted: c terminus: a fixed tail appended.
For DCAGSPQKPLCASDGRTFLSRVEF [C22V], the protein stability index worked out at 2.63.
The figure for DCAGSPQKPLCASDGRTFLSRQEF [C22Q] is 4.19; for DCAGSPQKPLCASDGRTFLSNCEF [R21N] it is 3.78.
On to DCAGSPQKPLCASDGRTFLSGCEF [R21G], for which the protein stability index is 4.57.
On to DCAGSPQKPLCASDGRTFLSHCEF [R21H], for which the protein stability index is 3.26.
As for DCAGSPQKPLCASDGRTFLSLCEF [R21L], the protein stability index was 3.02.
As to DCAGSPQKPLCASDGRTFLSCCEF [R21C], the protein stability index came to 2.44.
With DCAGSPQKPLCASDGRTFLSDCEF [R21D], the protein stability index was 4.14.
Turning to DCAGSPQKPLCASDGRTFLSTCEF [R21T], the protein stability index amounted to 1.9.
For the variant DCAGSPQKPLCASDGRTFLSMCEF [R21M], the protein stability index stood at 1.68.
In the case of DCAGSPQKPLCASDGRTFLSACEF [R21A], the protein stability index worked out at 2.71.
Consider DCAGSPQKPLCASDGRTFLSKCEF [R21K], for which the protein stability index was 2.67.
In the case of DCAGSPQKPLCASDGRTFLSWCEF [R21W], the protein stability index amounted to 1.76.
Turning to DCAGSPQKPLCASDGRTFLSPCEF [R21P], the protein stability index turned out to be 3.91.
The result for DCAGSPQKPLCASDGRTFLSVCEF [R21V] reads 2.65.
Consider DCAGSPQKPLCASDGRTFLSYCEF [R21Y], for which the protein stability index came to 2.27.
The result for DCAGSPQKPLCASDGRTFLSFCEF [R21F] reads 2.02.
The figure for DCAGSPQKPLCASDGRTFLSQCEF [R21Q] is 3.1; for DCAGSPQKPLCASDGRTFLSICEF [R21I] it is 1.67; for DCAGSPQKPLCASDGRTFLSECEF [R21E] it is 3.62.
The result for DCAGSPQKPLCASDGRTNLSRCEF [F18N] reads 4.26.
Regarding DCAGSPQKPLCASDGRTALSRCEF [F18A], the protein stability index was 3.52.
The result for DCAGSPQKPLCASDGRTPLSRCEF [F18P] reads 4; that for DCAGSPQKPLCASDGRTCLSRCEF [F18C], 3.73; that for DCAGSPQKPLCASDGRTDLSRCEF [F18D], 4.51.
The figure for DCAGSPQKPLCASDGRTTLSRCEF [F18T] is 4.
The figure for DCAGSPQKPLCASDGRTHLSRCEF [F18H] is 4.32; for DCAGSPQKPLCASDGRTVLSRCEF [F18V] it is 2.84; for DCAGSPQKPLCASDGRTGLSRCEF [F18G] it is 4.82.
DCAGSPQKPLCASDGRTLLSRCEF [F18L]: the protein stability index stood at 4.12.
As for DCAGSPQKPLCASDGRTSLSRCEF [F18S], the protein stability index was determined as 3.83.
The result for DCAGSPQKPLCASDGRTYLSRCEF [F18Y] reads 3.09.
Consider DCAGSPQKPLCASDGRTMLSRCEF [F18M], for which the protein stability index was determined as 4.01.
The figure for DCAGSPQKPLCASDGRTRLSRCEF [F18R] is 3.84; for DCAGSPQKPLCASDGRTWLSRCEF [F18W] it is 1.79.
The figure for DCAGSPQKPLCASDGRTQLSRCEF [F18Q] is 3.89; for DCAGSPQKPLCASDGRTELSRCEF [F18E] it is 4.54; for DCAGSPQKPLCASDGRTKLSRCEF [F18K] it is 4.09.
For DCAGSPQKPLCASDGRTILSRCEF [F18I], the protein stability index is 3.4.
As to DCAGSPQKPLCASDGRGFLSRCEF [T17G], the protein stability index is 3.97.
On to DCAGSPQKPLCASDGRWFLSRCEF [T17W], for which the protein stability index was found to be 1.29.
The figure for DCAGSPQKPLCASDGRCFLSRCEF [T17C] is 2.04; for DCAGSPQKPLCASDGRRFLSRCEF [T17R] it is 2.47.
Take DCAGSPQKPLCASDGREFLSRCEF [T17E]: the protein stability index came out at 3.82.
As for DCAGSPQKPLCASDGRFFLSRCEF [T17F], the protein stability index worked out at 2.32.
The figure for DCAGSPQKPLCASDGRVFLSRCEF [T17V] is 2.22.
The result for DCAGSPQKPLCASDGRIFLSRCEF [T17I] reads 2.33; that for DCAGSPQKPLCASDGRHFLSRCEF [T17H], 3.45.
The figure for DCAGSPQKPLCASDGRSFLSRCEF [T17S] is 2.66; for DCAGSPQKPLCASDGRMFLSRCEF [T17M] it is 3.31; for DCAGSPQKPLCASDGRYFLSRCEF [T17Y] it is 2.77.
As to DCAGSPQKPLCASDGRQFLSRCEF [T17Q], the protein stability index came out at 3.7.
The result for DCAGSPQKPLCASDGRLFLSRCEF [T17L] reads 2.11.
The result for DCAGSPQKPLCASDGRKFLSRCEF [T17K] reads 3.44; that for DCAGSPQKPLCASDGRDFLSRCEF [T17D], 3.12.
Consider DCAGSPQKPLCASDGRPFLSRCEF [T17P], for which the protein stability index was found to be 3.4.
The figure for DCAGSPQKPLCASDGRNFLSRCEF [T17N] is 3.27; for DCAGSPQKPLCASDGRTFLSRCKF [E23K] it is 3.63; for DCAGSPQKPLCASDGRTFLSRCGF [E23G] it is 1.5.
Turning to DCAGSPQKPLCASDGRTFLSRCSF [E23S], the protein stability index turned out to be 2.74.
Consider DCAGSPQKPLCASDGRTFLSRCFF [E23F], for which the protein stability index stood at 2.38.
The figure for DCAGSPQKPLCASDGRTFLSRCNF [E23N] is 3.31; for DCAGSPQKPLCASDGRTFLSRCCF [E23C] it is 2.53.
Regarding DCAGSPQKPLCASDGRTFLSRCMF [E23M], the protein stability index worked out at 2.1.
The result for DCAGSPQKPLCASDGRTFLSRCQF [E23Q] reads 3.27.
On to DCAGSPQKPLCASDGRTFLSRCVF [E23V], for which the protein stability index was 1.73.
The result for DCAGSPQKPLCASDGRTFLSRCPF [E23P] reads 2.95.
For the variant DCAGSPQKPLCASDGRTFLSRCWF [E23W], the protein stability index was 1.82.
For DCAGSPQKPLCASDGRTFLSRCYF [E23Y], the protein stability index turned out to be 1.84.
The result for DCAGSPQKPLCASDGRTFLSRCLF [E23L] reads 4.25; that for DCAGSPQKPLCASDGRTFLSRCRF [E23R], 2.43; that for DCAGSPQKPLCASDGRTFLSRCHF [E23H], 2.46.
The figure for DCAGSPQKPLCASDGRTFLSRCIF [E23I] is 1.52; for DCAGSPQKPLCASDGRTFLSRCTF [E23T] it is 2.19; for DCAGSPQKPLCASDGRTFLSRCAF [E23A] it is 2.59.
DCAGSPQKPLCASDGRTFLSRCDF [E23D]: the protein stability index stood at 3.65.
The result for DCAGSPQKPLCASDGRTFLHRCEF [S20H] reads 2.68.
Take DCAGSPQKPLCASDGRTFLWRCEF [S20W]: the protein stability index was determined as 3.01.
The figure for DCAGSPQKPLCASDGRTFLQRCEF [S20Q] is 2.97.
The figure for DCAGSPQKPLCASDGRTFLARCEF [S20A] is 2.85; for DCAGSPQKPLCASDGRTFLVRCEF [S20V] it is 3.04; for DCAGSPQKPLCASDGRTFLKRCEF [S20K] it is 3.04.
The figure for DCAGSPQKPLCASDGRTFLERCEF [S20E] is 2.93; for DCAGSPQKPLCASDGRTFLYRCEF [S20Y] it is 1.9.
DCAGSPQKPLCASDGRTFLCRCEF [S20C]: the protein stability index worked out at 2.86.
On to DCAGSPQKPLCASDGRTFLPRCEF [S20P], for which the protein stability index came out at 3.59.
With DCAGSPQKPLCASDGRTFLMRCEF [S20M], the protein stability index was 1.41.
On to DCAGSPQKPLCASDGRTFLIRCEF [S20I], for which the protein stability index amounted to 3.04.
On to DCAGSPQKPLCASDGRTFLRRCEF [S20R], for which the protein stability index is 3.23.
In the case of DCAGSPQKPLCASDGRTFLDRCEF [S20D], the protein stability index stood at 4.1.
Regarding DCAGSPQKPLCASDGRTFLNRCEF [S20N], the protein stability index is 3.64.
As for DCAGSPQKPLCASDGRTFLGRCEF [S20G], the protein stability index turned out to be 2.17.
For the variant DCAGSPQKPLCASDGRTFLLRCEF [S20L], the protein stability index turned out to be 3.1.
The figure for DCAGSPQKPLCASDGRTFLFRCEF [S20F] is 1.25.
